The record followed here is article PMC12157903.

The target in assay [1] is Recombinant protein G. Put plainly: optical weak value amplification (WVA) sensor; recombinant protein G (50 µg/mL, 30 min) immobilised on polydopamine on the prism, surface blocked; 10 µg/mL antibody (mouse IgG) injected at 30 µL/min for 120 min; PBS, 25 °C; reference channel with PBS subtracted; curves fitted with the intraparticle diffusion model.
Assay [2] deals with Mouse Immunoglobulin G (mouse). The assay is described as follows: optical weak value amplification (WVA) sensor; oriented strategy: mouse IgG captured on immobilised protein G; 30 µg/mL protein L injected until the signal was saturated (120 min); 25 °C.

Mouse Immunoglobulin G (antibody): in assay [1], the Kid,1 (intraparticle diffusion rate constant, surface diffusion stage) came to 454 a.u.min^−1/2; the Kid,2 (intraparticle diffusion rate constant, intraparticle diffusion stage) is 239 a.u.min^−1/2; the Kid,3 (intraparticle diffusion rate constant, intraparticle diffusion stage) was 83.9 a.u.min^−1/2; the fold antibody immobilised, against random immobilisation on polydopamine was found to be 2.27 fold.

With Recombinant protein L, the fold binding sites, against randomly immobilised IgG in assay [2] is 1.59 times.
